Results on eight substances are retold here after patent publication US20240327505A1.

Experiment [1] concerns the target SARS-CoV-2 Wuhan-1 full-length Spike protein on pseudovirus (SARS-CoV-2) (UniProt P0DTC2). Put plainly: cell-based or functional assay.
Experiment [2] has as its target SARS-CoV-1 spike protein on pseudovirus (SARS-CoV-1) (UniProt P59594). Put plainly: cell-based or functional assay.
Experiment [3] has as its target SARS-CoV-2 Spike (S) trimer (SARS-CoV-2) (UniProt P0DTC2). Put plainly: SPR binning (Carterra LSA), antibody amine-coupled to the chip as ligand.
The target in experiment [4] is SARS-CoV-2 spike protein on fully infectious (replication-competent) SARS-CoV-2 virus (SARS-CoV-2) (UniProt P0DTC2). Put plainly: cell-based or functional assay.
Experiment [5] has as its target SARS-CoV-2 Spike (S) trimer (SARS-CoV-2) (UniProt P0DTC2). Put plainly: ELISA on coated S trimer, 1:50. Background: In an ELISA, binding on a coated surface is turned into a signal by an enzyme label.
In experiment [6] the target is SARS-CoV-2 spike S1 protein (SARS-CoV-2) (UniProt P0DTC2).
Experiment [7] concerns the target SARS-CoV-2 spike receptor-binding domain (RBD) (SARS-CoV-2) (UniProt P0DTC2).

COVA1-21 (AB-010159) (antibody): the results for the Pseudovirus Neturalization in experiment [1] and in experiment [2] were 21 µg/mL and over 50 µg/mL, respectively.

In turn, “REGN10987 | Imdevimab (AB-010157) (antibody)” yielded a Pseudovirus Neturalization in experiment [2] of over 50 µg/mL.

In experiment [3], CR3022 (AB-009073) (antibody) came in with a response as ligand (RU) of under 20 RU. The results for the Pseudovirus Neturalization in experiment [1] and in experiment [2] were over 50 µg/mL and 2.61 µg/mL, respectively. For the same substance, the Neutralization (Infectious virus; (µg/mL)) in experiment [4] was over 50 µg/mL.

As to “REGN10933 | Casirivimab (AB-010156) (antibody)”, the Pseudovirus Neturalization in experiment [2] was over 50 µg/mL.

Regarding “Anti-Nucleocapsid (Neg Control) (antibody)”, the Pseudovirus Neturalization in experiment [1] and in experiment [2] was over 50 µg/mL throughout.

Broadly, the Kd is the constant that tells how readily two partners part at equilibrium. As usually defined, the koff is the first-order rate constant of dissociation. A low value points to a long-lived complex. By kon is commonly meant a measure of how fast the partners come together. High values mean fast association, low ones slow association. With CB-6 (AB-009264) (antibody), in experiment [5], the OD 450 nm was 2.81 OD. The substance further came in with a Pseudovirus Neturalization in experiment [1] of 0.012 µg/mL. Also, the Pseudovirus Neturalization in experiment [2] was over 50 µg/mL. Also, the Neutralization (Infectious virus; (µg/mL)) in experiment [4] was found to be 0.13 µg/mL. In experiment [6], this substance registered a Kd of 27.7 nM, a Response of 0.361 nm, a koff of 0.0107 s⁻¹ and an association rate constant (kon) of 386000 M⁻¹ s⁻¹. Further, in experiment [7], the Kd stood at 4.77 nM, the Response amounted to 0.58 nm, the koff turned out to be 0.000844 s⁻¹ and the kon stood at 177000 M⁻¹ s⁻¹.

The substance CA-1 (AB-009265) (antibody) registered an OD 450 nm in experiment [5] of 2.74 OD. In addition, in experiment [1], the Pseudovirus Neturalization worked out at 0.266 µg/mL. The same substance registered a Pseudovirus Neturalization in experiment [2] of over 50 µg/mL. In experiment [4], this substance had a Neutralization (Infectious virus; (µg/mL)) of 2.46 µg/mL. In experiment [6], the equilibrium dissociation constant (Kd) was determined as 43.6 nM, the Response is 0.27 nm, the dissociation rate constant (koff) was found to be 0.0127 s⁻¹ and the on-rate (kon) is 291000 M⁻¹ s⁻¹. In experiment [7], the Kd was 5.72 nM, the Response came to 0.53 nm, the koff came out at 0.000681 s⁻¹ and the kon turned out to be 119000 M⁻¹ s⁻¹.

The substance “LY-CoV555 | Bamlanivimab (AB-010160) (antibody)” registered a Pseudovirus Neturalization in experiment [2] of over 50 µg/mL.
